# Experimental data: patent US20240382610A1 (TALLAC THERAPEUTICS, published 2024)
# Numbering of substitutions follows the chain as printed.
# T1: Human nectin-4 ECD-6His (TNT-175) (human, UniProt Q96NY8 32-349)
# T1 construct: the entry holds the extracellular domain with the C-terminal 6His tag
# T1 sequence: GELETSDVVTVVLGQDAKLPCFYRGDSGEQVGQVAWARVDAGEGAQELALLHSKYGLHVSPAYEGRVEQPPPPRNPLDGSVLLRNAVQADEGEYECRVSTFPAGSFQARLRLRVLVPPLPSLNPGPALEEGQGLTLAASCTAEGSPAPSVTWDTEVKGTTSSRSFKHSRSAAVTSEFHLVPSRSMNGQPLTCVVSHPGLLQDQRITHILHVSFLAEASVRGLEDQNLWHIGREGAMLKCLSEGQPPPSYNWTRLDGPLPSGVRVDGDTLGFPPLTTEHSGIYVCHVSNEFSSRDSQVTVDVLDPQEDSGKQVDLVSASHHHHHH
# T2: Mouse nectin-4 ECD-6His (TNT-250) (mouse, UniProt Q8R007 31-347)
# T2 construct: entry includes the 6His tag; also called mouse nectin-4-LCD
# T2 sequence: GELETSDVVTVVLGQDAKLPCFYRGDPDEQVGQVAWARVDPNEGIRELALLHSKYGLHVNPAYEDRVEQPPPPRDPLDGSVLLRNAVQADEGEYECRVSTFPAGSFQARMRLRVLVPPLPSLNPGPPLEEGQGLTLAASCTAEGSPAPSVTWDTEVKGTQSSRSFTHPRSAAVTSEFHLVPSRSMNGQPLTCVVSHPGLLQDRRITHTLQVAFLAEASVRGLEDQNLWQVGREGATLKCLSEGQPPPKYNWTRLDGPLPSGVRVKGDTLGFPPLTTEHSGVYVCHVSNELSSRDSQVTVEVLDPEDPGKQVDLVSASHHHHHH
# T3: Human nectin-4-IgV-6His (TNT-252) (human, UniProt Q96NY8 32-147)
# T3 construct: entry includes the 6His tag
# T3 sequence: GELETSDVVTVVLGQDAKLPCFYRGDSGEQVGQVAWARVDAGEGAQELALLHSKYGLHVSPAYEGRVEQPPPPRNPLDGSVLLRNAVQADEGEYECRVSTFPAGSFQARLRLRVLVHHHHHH
# T4: Cyno nectin-4 ECD-6His (TNT-255) (cynomolgus, UniProt Q96NY8 32-349 (human entry))
# T4 construct: entry includes the 6His tag
# T4 chain: T1 sequence with V39A, I230V
# B1: TNT-330 (antibody, V domains shown)
# VH: EVQLVESGGGLVKPGGSLRLSCAVSGFTFSSYNMNWVRQAPGKGLEWVSSISISSSYIYYADSVKGRFTISRDNAKNSLYLQMNSLRAEDTAVYYCARDRGLDDAFDIWGQGTVVTVSS
# VL: DIVMTQTPLSLPVTPGEPASISCRSSQSLLDSDDGNTYLDWYLQKPGQSPQLLIYTLSYRASGVPDRFSGSGSGTDFTLKVSRVEAEDVGVYYCMQRIEFPYTFGQGTKLEIKR
# notes: human IgG1
# B2: TNT-205 (antibody, human IgG1, kappa)
# heavy: not shown
# light: DIVMTQSPSSLSASVGDRVTITCRASQGISNYLAWYQQKPGKVPKLLIYAASTLQSGVPSRFSGSGSGTDFTLTISSLQPEDVATYYCQKYNSAPYTFGQGTKVEIKRTVAAPSVFIFPPSDEQLKSGTASVVCLLNNFYPREAKVQWKVDNALQSGNSQESVTEQDSKDSTYSLSSTLTLSKADYEKHKVYACEVTHQGLSSPVTKSFNRGEC
# B3: TNT-211 (antibody, human IgG1, kappa)
# heavy: not shown
# light: B2 light with D70E, T74A, V83L, K90Q, Y91L, A94H, Y96I, K103R, V104L
# B4: TNT-323 (antibody, V domains shown)
# VH: QVQLQESGPGLVKPSETLSLTCTVSGGSISSYFWNWIRQPPGKGLEWIGYLYYIGTTNYNPSLKSRVTISVDTSKNQFSLKLNSVTAADTAVYYCARSGNYYNDAFDIWGQGTMVTVSS
# VL: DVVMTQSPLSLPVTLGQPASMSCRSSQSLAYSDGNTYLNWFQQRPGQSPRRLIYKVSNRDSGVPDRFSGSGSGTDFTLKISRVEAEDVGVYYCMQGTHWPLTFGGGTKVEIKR
# notes: human IgG1
# B5: TNT-318 (antibody, V domains shown)
# VH: QVQLQESGPGLVKPSETLSLTCTVSGGSISSNYWTWIRQSAGKGLEWIGRIHISESTNYNPSLKSRVTMSVDTSKNQFSLKLSSVTAADTAVYFCAREGEWKVLGAFDIWGQGTMVTVSS
# VL: QTVLTQPSSLSASPGASASLTCTLRSGINVGSYRIYWYQQKPGSPPQFLLRYKSDSDKQQGSGVPSRFSGSKDDSANAGILLISGLQSEDEADYYCMIWHSSASVFGTGTKVTVLG
# notes: human IgG1
# B6: TNT-328 (antibody, V domains shown)
# VH: QVQLQESGPGLVKPSETLSLTCTVSGGSMSSYFWSWIRQPPERGLEWVGYMYYSGNTNYNPSLKSRVTTSIDTSKNQFSLKLTSVTAADTAVYYCARSGNFYWNFDLWGRGTLVTVSS
# VL: QSVLTQPPSVSGAPGQRVTISCTGSSSNIGAGYNVHWYQQLPGTAPKVLISGNSNRPSGVPDRFSGSKSGTSASLAITGLQAEDEADYYCQSYDSSLSGSAVFGGGTKLTVLG
# notes: human IgG1
# B7: TNT-320 (antibody, V domains shown)
# VH: QVQLVQSGAEVKKPGASVKVSCKASGYTFTVYYIHWVRQAPGQGLEWMGWISPNSGGTNYAQKFQGRVTMTRDTSISTAYMELTRLRSDDTAIFYCARQTVVTPNWGFDYWGQGTLVTVSS
# VL: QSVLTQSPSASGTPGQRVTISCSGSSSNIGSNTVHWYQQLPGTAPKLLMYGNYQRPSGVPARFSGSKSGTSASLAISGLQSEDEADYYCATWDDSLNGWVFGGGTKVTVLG
# notes: human IgG1
# B8: TNT-321 (antibody, V domains shown)
# VH: QVQLQESGPGLVKPSETLSLTCTVSGGSISSYYWSWIRQPPGKGLEWIGYIYYSGNVNYNPSLKSRVTISVDASKNQFSLKLTSVTAADTAVYYCAIGGVGAQWDAFDIWGQGTMVTVSS
# VL: DIQMTQSPSAMSASVGDRVTITCRASQGISNYLAWFQQKPGKVPKRLIYAASSLQSGVPSRFSGSGSGTEFTLTISSLQPEDFATYYCLQHSFYPLTFGPGTKVDIKR
# notes: human IgG1
# B9: TNT-324 (antibody, V domains shown)
# VH: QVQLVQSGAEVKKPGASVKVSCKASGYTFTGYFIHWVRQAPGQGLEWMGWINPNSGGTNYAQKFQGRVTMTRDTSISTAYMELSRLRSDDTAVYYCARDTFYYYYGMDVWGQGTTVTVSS
# VL: QTVVTQEPSLTVSPGGTVTLTCASSTGAVTSGYYPNWFQQKPGQAPRALIYSTSNKHSWTPARFSGSLLGGKAALTLSGVQPEDEAEYYCLLYYDGAHLFGGGTKLTVLG
# notes: human IgG1
# B10: TNT-317 (antibody, V domains shown)
# VH: QVQLQESGPGLVKPSETLSLTCTVSGGSISSYFWSWIRQPPGKGLEWIGYIYYSGNTNYNPSLKSRVTISVDMSKNQFSLRLSSVTAADTAVYYCARDFHHYDGSAYRWYFDLWGRGTLVTVSS
# VL: QSVLTQPPSVSAAPGQKVTISCSGSSSNIGNNYVSWYQQFPGTAPKLLIYDNNKRPSGIPDRFSGSKSGTSATLGITGLQTGDEADYYCGTWDSSLNAGWVFGGGTKLTVLG
# notes: human IgG1
# B11: TNT-322 (antibody, V domains shown)
# VH: QVQLQESGPGLVKPSATLSLTCTVSGGSISSYYWNWIRQPPGKGLEWIGYIYYSGNTNYNPSLKSRVTISVDMSKNQFSLKLNSVTAADTAVYYCARSESYGYWFFYLWGRGTLVTVSS
# VL: B10 VL with N97S, W100V
# notes: human IgG1
# B12: TNT-331 (antibody, V domains shown)
# VH: QVHLQESGPGLVKPSETLSLTCTVSGGSIRSYYWSWIRQPAGKGLEWIGRIYTSGSTNYNPSLKSRVTMSVDTSKNRLSLKLSSVTAADTAVYYCAKENWGPSFDYWGQGTLVTVSS
# VL: B10 VL with F40L, S94T, N97S, A98S, V101L
# notes: human IgG1
# B13: TNT-327 (antibody, V domains shown)
# VH: QVQLQESGPGLVKPSETLSLTCTVSGGSISDYYWIWIRQPAGKGLEWIGRIYTTGGAKYNPSLKSRVTMSIDTSKNNFSLKLSSVTAADTAVYFCARDRNWEWNFDLWGRGTLVTVSS
# VL: QSALTQPASVSGSPGQSITISCTGTTSDIGSYNLVSWYQQHPGKAPKLMIYEVSMSPSGVSDRFSGSKSGSTASLTISGLQAEDEADYYCSSYAGSSTVVFGGGTRLTVLG
# notes: human IgG1
# Molecular target: T1, Human nectin-4 ECD-6His (TNT-175)
# Experiment: SPR Biacore 8K, mAb on protein A
# Procedure: (§1) The running buffer was 10 mM HEPES, pH 7.4, 150 mM NaCl, 3 mM EDTA, 0.05% (v/v) Surfactant P20 (HBS-EP+). […] The nectin-4 analytes were injected in either single-cycle kinetics or multi-cycle kinetics mode at nominal starting concentrations of 300 nM or 900 nM with 3-fold serial dilutions. Association times were monitored for 120 s, and dissociation times were monitored 1800 s at 30 μL/min flow rate. The surfaces were regenerated with 10 mM glycine at pH1.7 or 75 mM phosphoric acid at pH1.6 for two pulses of 15 s at 30 μL/min flow rate.
# (§2) The data were processed and analyzed with Biacore 8K Evaluation Software Version 3.0.12.15655 (Cytiva, Global Life Sciences Solutions USA LLC, Marlborough, MA). […] The responses from the nearest buffer blank injection were then subtracted from the reference subtracted data (2-1) to yield double-referenced data. These double-reference data were fit to a simple 1:1 Langmuir binding model with mass transport to determine the apparent association (ka) and dissociation rate constants (kd). The apparent equilibrium dissociation constant or affinity constant was then calculated based on their ratio as (KD=kd/ka).
row,Kd,Binder
1,16.4 nM,B1
2,53.9 nM,B2
3,24.3 nM,B3
4,9 nM,B4
5,260 nM,B5
6,1.59 nM,B6
7,18.4 nM,B7
8,14 nM,B8
9,64.5 nM,B9
10,15.7 nM,B10
11,57.9 nM,B11
12,87.4 nM,B12
13,3.63 nM,B13

# Molecular target: T2, Mouse nectin-4 ECD-6His (TNT-250)
# Experiment: SPR Biacore 8K, mAb on protein A
# Procedure: as §1, §2
Kd,Binder,binding result
–,B1,no binding (tested: up to 300 or 900 nM analyte)
820 nM,B2,–
68.4 nM,B3,–
–,B4,no binding (tested: up to 300 or 900 nM analyte)
–,B5,no binding (tested: up to 300 or 900 nM analyte)
–,B6,no binding (tested: up to 300 or 900 nM analyte)
–,B7,no binding (tested: up to 300 or 900 nM analyte)
–,B8,no binding (tested: up to 300 or 900 nM analyte)
–,B9,no binding (tested: up to 300 or 900 nM analyte)
–,B10,no binding (tested: up to 300 or 900 nM analyte)
–,B11,no binding (tested: up to 300 or 900 nM analyte)
–,B12,no binding (tested: up to 300 or 900 nM analyte)
–,B13,no binding (tested: up to 300 or 900 nM analyte)

# Molecular target: T3, Human nectin-4-IgV-6His (TNT-252)
# Experiment: SPR Biacore 8K, mAb on protein A
# Procedure: as §1, §2
Kd,Binder,binding result
7.3 nM,B1,–
75.3 nM,B2,–
24.3 nM,B3,–
–,B4,no binding (tested: up to 300 or 900 nM analyte)
–,B5,no binding (tested: up to 300 or 900 nM analyte)
–,B6,no binding (tested: up to 300 or 900 nM analyte)
9.91 nM,B7,–
11.6 nM,B8,–
30.7 nM,B9,–
–,B10,no binding (tested: up to 300 or 900 nM analyte)
–,B11,no binding (tested: up to 300 or 900 nM analyte)
–,B12,no binding (tested: up to 300 or 900 nM analyte)
1.64 nM,B13,–

# Molecular target: T4, Cyno nectin-4 ECD-6His (TNT-255)
# Experiment: SPR Biacore 8K, mAb on protein A
# Procedure: as §1, §2
row,Kd,Binder
1,13.7 nM,B1
2,727 nM,B2
3,48.9 nM,B3
4,8.67 nM,B4
5,211 nM,B5
6,1.78 nM,B6
7,35.9 nM,B7
8,56 nM,B8
9,24.4 nM,B9
10,18.3 nM,B10
11,51.5 nM,B11
12,32.8 nM,B12
13,2.85 nM,B13
